Measurements published in patent US20220135665A1.
Values joined by “and” are separate entries in the source; they are usually repeats but may differ in a detail not shown here. Identical values can stand only once. Values belong to the binder of their own block, whether it stands above or below them.

How the values were obtained:
[1] = biological target: recombinant human VEGF165 protein (human) (UniProt P15692); assay: cell-based or functional assay
[2] = biological target: recombinant human VEGF165 protein (human) (UniProt P15692); assay: streptavidin-coated sensor with immobilized biotin-labeled VEGF165; reference Lucentis
[3] = biological target: recombinant human VEGF165 protein (human) (UniProt P15692); assay: streptavidin-coated sensor with immobilized biotin-labeled VEGF165, Fab at multiple concentrations
[4] = biological target: recombinant human VEGF165 protein (human) (UniProt P15692); assay: ELISA; coated VEGF165 titrated (0.15-3000 ng/mL), Fab fixed at 1 ug/mL; EC50 is in coated antigen concentration
[5] = biological target: recombinant human VEGF165 protein (human) (UniProt P15692); assay: Table 3, binding affinity to recombinant VEGF165 (streptavidin-coated sensor, biotin-labeled VEGF165)

EC50(nM), neutralization of HUVEC proliferation, VEGF165 at 10 ng/mL [1]: 0.23 nM and 0.18 nM and 0.22 nM | fold affinity against Lucentis [2]: 3.75 fold | Kd [3]: 0.154 nM | koff [3]: 4.21e-05 s⁻¹ | kon [3]: 274000 M⁻¹ s⁻¹ | EC50 [4]: 0.0187 µg/mL
B1: humanized antibody VEGF-H988 Fab fragment (Fab, V domains shown)
VH: QSVQESGPGLVKPSETLSLTCTVSGIDLSSYAISWVRQPPGKGLEYIGYIWNDLFTYYASWAKGRVTISVDTSKNQVDLKLSSVTAADTAVYFCARGTLGDYGGMDPWGQGTLVTVSS
VL: ELQLTQSPSSLSASVGDRVTITCQSSKFLWQGRRLAWYQQKPGKVPKLLIYGASTLASGVPSRFKGSGSGTDFTLTISSLQPEDVATYYCAGYKSYDGDVVGFGGGTKVEIKR

Kd [5]: 0.0195 nM | koff [5]: 6.7e-06 s⁻¹ | kon [5]: 344000 M⁻¹ s⁻¹
B2: VEGF-H988 (sample label in Table 3) (antibody, V domains shown)
VH: B1 VH
VL: ELQLTQSPSSLSASVGDRVTITCQSSKFLWQGRRLAWYQQKPGKVPKLLIYGASTLASGVPSRFKGSGSGTDFTLTISSLQPEDVATYYCAGYKSYDGDVVGFGGGTKVEIK

EC50(nM), neutralization of HUVEC proliferation, VEGF165 at 10 ng/mL [1]: 0.41 nM | EC50(nM), neutralization of HUVEC proliferation, VEGF165 at 100 ng/mL [1]: 6.74 nM | EC50(nM), neutralization of HUVEC proliferation, VEGF165 at 1000 ng/mL [1]: 71.2 nM | Maximum neutralization rate (%), VEGF165 at 10 ng/mL [1]: 100% | Maximum neutralization rate (%), VEGF165 at 100 ng/mL [1]: 101% | Maximum neutralization rate (%), VEGF165 at 1000 ng/mL [1]: 101%
B3: Brolucizumab (scFv, INN chains, looked up, V domains shown)
VH: EVQLVESGGGLVQPGGSLRLSCTASGFSLTDYYYMTWVRQAPGKGLEWVGFIDPDDDPYYATWAKGRFTISRDNSKNTLYLQMNSLRAEDTAVYYCAGGDHNSGWGLDIWGQGTLVTVSS
VL: EIVMTQSPSTLSASVGDRVIITCQASEIIHSWLAWYQQKPGKAPKLLIYLASTLASGVPSRFSGSGSGAEFTLTISSLQPDDFATYYCQNVYLASTNGANFGQGTKLTVL
modifications: scFv
